± gives the uncertainty stated by the source.
Assay: self-splicing fitness, log relative to wild type (ln ratio); higher = more splicing; Tetrahymena group I intron in knt gene, E. coli kanamycin selection, DiMSum; sequences stand for … in CUCUCU…GGAGGGAAAAGUUAUCAGGCAUGCACCUGGUAGCUAGUCUUUAAACCAAUAGAUUGCAUCGGUUUAAAAGGCAAGACCGUCAAAUUGCGGGAAAGGGGUCAACAGCCGUUCAGUACCAAGUCUCAGGGGAAACUUUGAGAUGGCCUUGCAAAGGGUAUGGUAAUAAGCUGACGGACAUGGUCCUAACCACGCAGCCAAGUCCUAAGUCAACAGAUCUUCUGUUGAUAUGGAUGCAGUUCACAGACUAAAUGUCGGUCGGGGAAGAUGUAUUCUUCUCAUAAGAUAUAGUCGGACCUCUCCUUAAUGGGAGCUAGCGGAUGAAGUGAUGCAACACUGGAGCCGCUGGGAACUAAUUUGUAUGCGAAAGUAUAUUGAUUAGUUUUGGAGUACUCGUGGUCG
Outline: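 The eight P1ex-region nucleotides of an intron in the knt kanamycin-resistance gene on pET-22b(+) were all randomised and the library put into E. coli BL21(DE3). Six replicate transformations were grown overnight at 37°C or 30°C on LB agar with or without 25 μg/mL kanamycin, together with 100 μg/mL carbenicillin, 50 μM IPTG and 0.2% rhamnose. Colonies were pooled and amplicon-sequenced on an Illumina HiSeq 2500. Fitness from DiMSum is the error-weighted combination of wild-type-normalised replicate fold changes, kanamycin over none.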

| Sequence | self-splicing fitness (ln) (37 °C) | self-splicing fitness (ln) (30 °C) |
| --- | --- | --- |
| GGAUAGCAAUAUUACGGUAG | -3.74 ± 0.34 |  |
| GGGUAGCAAUAUUACGGGGA | -2.31 ± 0.38 | -3.52 ± 0.35 |
| AAGGAGCAAUAUUACGAAUC | -1.46 ± 0.36 |  |
| ACGAAGCAAUAUUACGCGCA | 0.542 ± 0.1 | -0.419 ± 0.068 |
| AUACAGCAAUAUUACGCAGC | -1.87 ± 0.19 | -4.34 ± 0.45 |
| UUGUAGCAAUAUUACGCAAA | -1.05 ± 0.26 | -2.73 ± 0.35 |
| ACCUAGCAAUAUUACGCGCA | -0.709 ± 0.087 | -0.569 ± 0.08 |
| GGUGAGCAAUAUUACGCGCU |  | -1.7 ± 0.42 |
| CUUAAGCAAUAUUACGAAGU | -2.19 ± 0.18 | -2.9 ± 0.13 |
| CUAGAGCAAUAUUACGGGAG | -0.0261 ± 0.075 | -0.494 ± 0.052 |
| UCAAAGCAAUAUUACGCGGG | -2.14 ± 0.16 | -3.64 ± 0.19 |
| UGGCAGCAAUAUUACGACCA | -0.654 ± 0.2 | -0.399 ± 0.2 |
| UAAAAGCAAUAUUACGAACU | -0.647 ± 0.2 | -0.332 ± 0.23 |
| UAGUAGCAAUAUUACGUCAA | -2.44 ± 0.18 | -2.07 ± 0.23 |
| CCGGAGCAAUAUUACGCACG | -0.516 ± 0.21 |  |
| GAAGAGCAAUAUUACGAAUA | -1.63 ± 0.35 |  |
| AUGAAGCAAUAUUACGUCGU | -0.0581 ± 0.089 | -0.896 ± 0.07 |
| AGAUAGCAAUAUUACGUCCA | 0.122 ± 0.18 | 0.498 ± 0.11 |
| AUGCAGCAAUAUUACGGAGG | -2.07 ± 0.15 | -3.79 ± 0.2 |
| UAGAAGCAAUAUUACGCCCG | 0.487 ± 0.23 | -0.762 ± 0.18 |
| UAUAAGCAAUAUUACGCAUC | -2.38 ± 0.17 | -3.74 ± 0.2 |

| Sequence | self-splicing fitness (ln) (37 °C) | self-splicing fitness (ln) (30 °C) |
| --- | --- | --- |
| CGUGAGCAAUAUUACGGACU | -0.345 ± 0.23 | -1.09 ± 0.14 |
| UGCUAGCAAUAUUACGCAAU | -2.31 ± 0.29 | -3.02 ± 0.3 |
| CCUUAGCAAUAUUACGAGCA | -3.17 ± 0.33 | -2.64 ± 0.22 |
| AGCGAGCAAUAUUACGACAG | -2.08 ± 0.4 |  |
| CAGGAGCAAUAUUACGUCUC | -3.07 ± 0.3 |  |
| ACCGAGCAAUAUUACGAUGC | -1.56 ± 0.14 | -1.97 ± 0.14 |
| CUCCAGCAAUAUUACGUUGC | -1.77 ± 0.15 | -3.98 ± 0.27 |
| CUGAAGCAAUAUUACGGGAA |  | -2.05 ± 0.18 |
| CAGUAGCAAUAUUACGCAAU |  | -1.7 ± 0.39 |
| GACAAGCAAUAUUACGAUUC | -0.552 ± 0.12 | -0.734 ± 0.083 |
| UUUGAGCAAUAUUACGCGAU | -2.19 ± 0.4 |  |
| GCUGAGCAAUAUUACGUUCU | -0.758 ± 0.15 | -0.944 ± 0.12 |
| UGGUAGCAAUAUUACGGAAA | -1.81 ± 0.24 | -1.86 ± 0.28 |
| UAUCAGCAAUAUUACGGCUA | 0.848 ± 0.12 | 0.13 ± 0.085 |
| GUGGAGCAAUAUUACGCGUG | -1.77 ± 0.3 | -2.88 ± 0.37 |
| GGACAGCAAUAUUACGUGCA | -0.64 ± 0.09 | -0.37 ± 0.085 |
| AAUCAGCAAUAUUACGUGGA | -0.433 ± 0.076 | -0.585 ± 0.072 |
| AAAUAGCAAUAUUACGCGCA | -0.103 ± 0.11 | -0.264 ± 0.092 |
| UAAAAGCAAUAUUACGUAUG | -0.324 ± 0.095 | -1.07 ± 0.078 |
| CUAGAGCAAUAUUACGUGAA | -2.07 ± 0.26 | -3.81 ± 0.23 |

From the supplement of paper PMC7877785
